Assay results from US20100119450A1 (published 2010).

B1: recombinant LRP-1 fragment encompassing cluster II (receptor, UniProt Q07954 805-1184, looked up)
chain: NKCRVNNGGCSSLCLATPGSRQCACAEDQVLDADGVTCLANPSYVPPPQCQPGEFACANSRCIQERWKCDGDNDCLDNSDEAPALCHQHTCPSDRFKCENNRCIPNRWLCDGDNDCGNSEDESNATCSARTCPPNQFSCASGRCIPISWTCDLDDDCGDRSDESASCAYPTCFPLTQFTCNNGRCININWRCDNDNDCGDNSDEAGCSHSCSSTQFKCNSGRCIPEHWTCDGDNDCGDYSDETHANCTNQATRPPGGCHTDEFQCRLDGLCIPLRWRCDGDTDCMDSSDEKSCEGVTHVCDPSVKFGCKDSARCISKAWVCDGDNDCEDNSDEENCESLACRPPSHPCANNTSVCLPPDKLCDGNDDCGDGSDEGELCDQ
notes: domain: cluster II; Produced in stably transfected baby hamster kidney cells as described in Westein et al., 2002; immobilized on CM5 chip; also called LRP-1 cluster II; LRP-1 II
B2: recombinant LRP-1 fragment encompassing cluster IV (receptor)
chain: not shown
notes: domain: cluster IV; Produced in stably transfected baby hamster kidney cells as described in Westein et al., 2002; immobilized on CM5 chip; also called LRP-1 cluster IV; LRP-1 IV

Key:
[1] = biological target: T1, amyloid-β peptide Aβ1-40 (wild-type) (UniProt P05067 672-711); assay: SPR (BIACORE X), LRP-1 cluster immobilized on CM5 chip, Aβ in solution; apparent Kd from koff/kon
T1 construct: domain: Aβ1-40; Soluble monomeric synthetic peptide; used 125I-labeled as tracer in capillary and in vivo studies; also called Aβ40; wild-type Aβ1-40
Protocol: (§1) Incubation conditions as described under Materials and Methods. […] Apparent affinity constants K_{d(app)} were deduced from the ratios of k_{off(app)}/kₒₙ₍ₐₚₚ₎ as described under Materials and Methods. […] K_{d(app)} (mean±SD) values were determined from 6 to 9 different concentrations of Aβ and 3 to 5 independent measurements at each concentration.
(§2) (as described in Westein et al., 2002). […] Ligand solution was replaced with buffer to initiate dissociation. The data were analyzed to calculate apparent association rate constants kₒₙ₍ₐₚₚ₎ and apparent dissociation rate constants k_{off(app)} using a single-site binding model (as described in Westein et al., 2002). Apparent affinity constants K_{d(app)} were inferred from the ratio k_{off(app)}/kₒₙ₍ₐₚₚ₎. Data are based on three to five measurements using six to nine different concentrations for each measurement. Data are presented as the mean±SEM. Analysis was performed using BIACORE X biosensor system (Uppsala, Sweden) and BIA evaluation 3.0 software (Biocore, Sweden).

[2] = biological target: T2, amyloid-β peptide Aβ1-42 (wild-type) (UniProt P05067 672-713); assay: as above
T2 construct: domain: Aβ1-42; Synthetic peptide; also called Aβ42
Protocol: as §1, §2

| Binder | Kd [1] [nM] | Kd [2] [nM] |
| --- | --- | --- |
| B1 | 0.57 | 3 |
| B2 | 1.24 | 10.1 |
